T1: BMP2 (Homo sapiens, UniProt P12643)
T1 sequence (P12643 283-396): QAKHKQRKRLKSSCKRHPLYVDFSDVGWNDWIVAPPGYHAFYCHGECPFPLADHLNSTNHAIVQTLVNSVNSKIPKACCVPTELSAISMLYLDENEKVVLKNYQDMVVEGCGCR

T2: BMP5 (Homo sapiens, UniProt P22003)
T2 sequence (P22003 317-454): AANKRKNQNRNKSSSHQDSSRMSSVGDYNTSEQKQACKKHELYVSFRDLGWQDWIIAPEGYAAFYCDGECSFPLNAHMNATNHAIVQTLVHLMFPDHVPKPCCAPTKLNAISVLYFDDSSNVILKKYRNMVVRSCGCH

T3: BMP6 (Homo sapiens, UniProt P22004)
T3 sequence (P22004 375-513): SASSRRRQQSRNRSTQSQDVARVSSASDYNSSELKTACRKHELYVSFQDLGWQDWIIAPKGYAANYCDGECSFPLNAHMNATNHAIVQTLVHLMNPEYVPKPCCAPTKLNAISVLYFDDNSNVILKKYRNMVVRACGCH

T4: BMP7 (Homo sapiens, UniProt P18075)
T4 sequence (P18075 293-431): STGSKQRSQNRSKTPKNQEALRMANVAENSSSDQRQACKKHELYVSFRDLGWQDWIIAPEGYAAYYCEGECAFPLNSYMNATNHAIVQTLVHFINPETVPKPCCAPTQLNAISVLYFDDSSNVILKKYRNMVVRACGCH


Experiments:
BMP2 = molecular target: T1, BMP2; test: BMP specificity of VHH antibodies (summary of binding and inhibition of BMP function); parameters: key: ●▪: Binding and inhibition of BMP function.; ●□: Binding, but no inhibition.; ○: No binding; details: summary of SPR and functional experiments
Excerpt: (§1) Thus, we have generated several VH Hs that can be classified into four groups (Table 3): BMP4, BMP2/4, BMP2/4/5 and BMP2/4/5/6-specific.

BMP5 [1] = molecular target: T2, BMP5; test: as above; parameters: key: ●▪: Binding and inhibition of BMP function.; ●□: Binding, but no inhibition.; ○: No binding; details: summary of SPR and functional experiments
Excerpt: as §1

BMP6 = molecular target: T3, BMP6; test: as above; parameters: key: ●▪: Binding and inhibition of BMP function.; ●□: Binding, but no inhibition.; ○: No binding; details: summary of SPR and functional experiments
Excerpt: as §1

BMP7 [2] = molecular target: T4, BMP7; test: as above; parameters: key: ●▪: Binding and inhibition of BMP function.; ●□: Binding, but no inhibition.; ○: No binding; details: summary of SPR and functional experiments
Excerpt: as §1

BMP7 [3] = molecular target: T4, BMP7; test: BMP activity luciferase reporter assay (BRE-luciferase, ID1 promoter) in C2C12 cells; format: cell-based, mouse; details: 200 ng/ml hBMP7, 16 h; 500 ng/ml
Procedure: (§2) One of the most studied BMP target genes is the Inhibitor of Differentiation 1 (ID1). This is an immediate early gene that is activated by binding of the phosphorylated SMADs to its promoter region (López-Rovira et al., 2002). Thus, we employed the BMP-responsive C2C12 cells, which are stably transfected with the BRE-luciferase vector containing the BMP-Responsive-Element (the mouse ID1 promoter) cloned into the pGL3 luciferase vector (Zilberberg 2007). […] C2C12 cells were treated with the different BMPs with or without our VHHs or human Noggin at a concentration of 5 μg/ml. Luciferase activity was measured after 16 hours incubation. Most of the transcriptional data is in concordance with the results obtained with the phosphorylation of SMAD1/5/8.
(§3) C2C12 cells were plated in 96-well plates at 5×10^3 cells/well and cells were allowed to attach overnight. 100 μl of DMEM with 0.1% BSA were added in each well. VHH antibodies and human Fc-Noggin at the indicated concentrations were added at the same time. Wells with unstimulated cells were added as controls. Cells were treated in triplicate with the BMPs at the indicated concentrations for 16 hours. Luciferase activity was measured by adding 100 μl of luciferase substrate solution from the Bright-Glo™ Luciferase Assay System (Promega Benelux, Leiden, The Netherlands). After 3 minutes of incubation, luciferase activity was measured with Synergy HT Multi-Mode Microplate Reader (Biotek, Winooski, Vt., United States). Luciferase values were normalized to background activity (activity of wells with no cells) and represented as ratio to the activity of BMP-stimulated cells.
C2C12 cells were cultured in 96-well plates at 5×10^3 cells/well. […]

HT29 cells = test: Chemosensitivity / cell viability (Presto Blue); format: cell-based, human
Procedure: We wanted to determine whether this effect could be attributable to BMP4 that is being secreted by the cancer cells, and if therefore, could be inhibited by our BMP4-specific VHHs. A panel of colorectal cancer cells was tested for the presence of active BMPs in their conditioned media (FIG. 28A). To that end, the C2C12 cells were cultured with supernatants from different cancer cell lines. When normalized for the BMPs present in normal fetal calf serum, we found a high variability in BRE-luciferase activity across cell lines. […] One of those cell lines, HT29, was used to test the effect of BMP4 inhibition in terms of proliferation. No effect was observed when cultured with the VHHs or Noggin alone (data not shown).
HT29 cells were plated in 96-well plates at a density of 10,000 cells per well. […] The VHHs or Noggin were added at the same time at a concentration of 500 ng/ml. Cell viability was measured by adding the Presto Blue Reagent (Invitrogen) for 2 hours at 37° C., after which absorbance was measured at […].

BMP5 [4] = molecular target: T2, BMP5; test: BMP activity luciferase reporter assay (BRE-luciferase, ID1 promoter) in C2C12 cells; format: cell-based, mouse; parameters: purchased R&D Systems 615-BMC-020; details: 200 ng/ml hBMP5, 16 h; VHH, Noggin, Gremlin 500 ng/ml; LDN 0.5 μM; DMH1 0.2 μM
Procedure: as §2
as §3, with “Cells were treated in triplicate with the BMPs at the indicated concentrations for 16 hours.” left out, “Luciferase values were normalized to background activity (activity of wells with no cells) and represented as ratio to the activity of BMP-stimulated cells.” left out

Row | BMP2: binding and inhibition of BMP function (BMP2) | BMP5: binding and inhibition of BMP function (BMP5 [1]) | BMP6: binding and inhibition of BMP function (BMP6) | BMP7: binding and inhibition of BMP function (BMP7 [2]) | inhibition of BMP-7 signals, comparison of inhibitors (BMP7 [3]) | inhibition of BMP5 signals, comparison of inhibitors (BMP5 [4]) | Molecule | chemosensitivity (cell viability) in combination with Carboplatin, 5′FU or Oxaliplatin (HT29 cells; 500 ng/ml, 48 hours) | effect on HT29 proliferation, alone (HT29 cells; without chemotherapy (data not shown))
1 | ●▪ | ●▪ | ●□ | ●□ |  |  | C8E7: E7 linked to C8, hetero-dimer VHH bihead (protein) EVQLVESGGGLVQAGGSLRLSCAASGRTFRINDMGWYRQAPGKSRDMVARITSGGNTNYADSVKGRFTISRDNAKNTVYLQMNSLKPEDTAVYYCNADGLRFDSTRYRPFDSWGQGTQVTVSSGGGGSGGGGSEVQLVESGGGLVQAGGSLRLSCAASGSIRGFVAMAWYRQAPGKQREWVATVTNGGTLYGDSVKGRFTGSRDNAKNTVYLQMNSLKPEDTAVYYCALRQIGASGYDYWGQGTQVTVSS |  | 
2 |  |  |  |  | inhibited | greatly inhibit | hNoggin (protein) QHYLHIRPAPSDNLPLVDLIEHPDPIFDPKEKDLNETLLRSLLGGHYDPGFMATSPPEDRPGGGGGAAGGAEDLAELDQLLRQRPSGAMPSEIKGLEFSEGLAQGKKQRLSKKLRRKLQMWLWSQTFCPVLYAWNDLGSRFWPRYVKVGSCFSKRSCSVPEGMVCKPSKSVHLTVLRWRCQRRGGQRCGWIPIQYPIISECKCSC | not as effective as observed for C4C4 or C8C8 | No effect
